US7037666B2, “Methods for identifying modulators of the interaction between lap (latency associated peptide) and intergrin αvβ3 and medical use thereof” (SmithKline Beecham Corporation, priority 2000, dated 2006)
Ends that are not written are not given here.

Tests used:
Format in all cases: cell-based
K562-WT cells = test: Adhesion of K562-WT cells to LAP-β1 coated wells; conditions: coated at 10 μg/ml, 0.5 mM MnCl2
Method: (§1) Cells were allowed to attach to wells coated with LAP-β1 at 10 μg/ml. Cells were incubated for 35 minutes at 37° C. in HBSS supplemented with 25 mM HEPES pH 7.5, and either 0.5 mM MnCl2 (K562-WT, HL60, K562-αvβ6) or 2 mM MgCl2 (K562-αvβ3, K562-αvβ5). Each bar represents the mean±SD of duplicated points.
(§2) K562-WT (wild-type), K562-αvβ6, K562-αvβ5, K562-αvβ3, and HL60 cells were maintained in 1:1 RPMI 1640, Hepes modification (Gibco): Dulbecco's Minimum Essential Medium (DMEM), Hepes modification (Sigma) supplemented with L-glutamine (Gibco) and 10% fetal calf serum (FCS). In addition K562-αvβ3, K562-αvβ5, and K562-αvβ6 cells were supplemented with geneticin (G418, Gibco) at 1 mg/ml. All transfected cells were generated by transfecting K562 cells with pCDNA-3 constructs containing individual integrin cDNAs, using lipofectamine plus (Gibco BRL).
(§3) All proteins were coated onto Maxisorp 96-well plates (Nunclon) overnight at 4° C. Each protein was diluted in PBS at the concentrations indicated, and a total volume of 100 ul added per well. Plates were washed twice in PBS then blocked with 3% BSA/PBS for 1 hour at 37° C., and finally washed twice in PBS. […] For quantitation cells were visualised by staining with 0.1% crystal violet (Sigma) for 10 minutes then lysed in 0.5% Triton X-100 (Sigma) and read optically at 570 nm in a Wallac Victor plate reader.

αvβ5 integrin = target: T1, αvβ5 integrin (Homo sapiens, UniProt P06756+P18084); test: Adhesion of K562-αvβ5 cells to LAP-β1 coated wells; conditions: coated at 10 μg/ml, 2 mM MgCl2
T1 construct: expressed in transfected cells; host or cells: K562
Method: as §1, §2, §3

HL60 cells = test: Adhesion of HL60 cells to LAP-β1 coated wells; conditions: coated at 10 μg/ml, 0.5 mM MnCl2
Method: as §1, §2, §3

αvβ3 integrin [1] = target: T2, αvβ3 integrin (Homo sapiens, UniProt P05106+P06756); test: Adhesion of K562-αvβ3 cells to LAP-β1 coated wells; conditions: coated at 10 μg/ml, 2 mM MgCl2
T2 construct: expressed in transfected cells; host or cells: K562
Method: Cells were allowed to attach to wells coated with quantities of LAP-β1 indicated. […] The buffer used was HBSS supplemented with 25 mM HEPES pH 7.5, and 2 mM MgCl2. Each data point represents the mean±SD of duplicated samples.
The buffer used was HBSS supplemented with 25 mM HEPES pH 7.5, and 2 mM MgCl2. Adhesion to each ligand in the absence of compound was taken as a 100% binding value, with adhesion to BSA alone as a 0% binding value. The 100% binding values corresponded to the following absorbances at 570 nm: Fibrinogen=0.8, Vitronectin=0.9, LAP-β1=0.9. Each data point represents the mean±SD of duplicated samples. […]

αvβ6 integrin = target: T3, αvβ6 integrin (Homo sapiens, UniProt P06756+P18564); test: Adhesion of K562-αvβ6 cells to LAP-β1 coated wells; conditions: coated at 10 μg/ml, 0.5 mM MnCl2
T3 construct: expressed in transfected cells; host or cells: K562
Method: as §1
Cells were allowed to attach to wells coated with LAP-β1 at 10 μg/ml. Cells were incubated for 5 minutes on ice, then for 35 minutes at 37° C., in the presence of antibodies at 10 μg/ml as indicated. The buffer used was HBSS supplemented with 25 mM HEPES pH 7.5, and 2 mM MgCl2. Each bar represents the mean±SD of duplicated samples.
K562-WT (wild-type), K562-αvβ6, K562-αvβ5, K562-αvβ3, and HL60 cells were maintained in 1:1 RPMI 1640, Hepes modification (Gibco): Dulbecco's Minimum Essential Medium (DMEM), Hepes modification (Sigma) supplemented with L-glutamine (Gibco) and 10% fetal calf serum (FCS). In addition K562-αvβ3, K562-αvβ5, and K562-αvβ6 cells were supplemented with geneticin (G418, Gibco) at 1 mg/ml. […]
All proteins were coated onto Maxisorp 96-well plates (Nunclon) overnight at 4° C. […] For quantitation cells were visualised by staining with 0.1% crystal violet (Sigma) for 10 minutes then lysed in 0.5% Triton X-100 (Sigma) and read optically at 570 nm in a Wallac Victor plate reader.

αvβ3 integrin [2] = target: T2, αvβ3 integrin; test: Adhesion of K562-αvβ3 cells to GST-LAPβ1 (amino acids 242–252) coated wells; conditions: matrix titration or 0.5 μg coated, 2 mM MgCl2
Method: All proteins were coated onto Maxisorp 96-well plates (Nunclon) overnight at 4° C. Each protein was diluted in PBS at the concentrations indicated, and a total volume of 100 ul added per well. Plates were washed twice in PBS then blocked with 3% BSA/PBS for 1 hour at 37° C., and finally washed twice in PBS. Cells were pelleted and washed once in HBSS (Sigma) then spread in HBSS, 25 mM HEPES pH 7.5 at the desired cell concentration (K562-WT, K562-αvβ6, HL60 at 6×10^6 cells/ml, K562-αvβ5, K562-αvβ3 at 4×10^6 cells/ml, 100 ul per well), in the presence of either 2 mM MgCl2 or 0.5 mM MnCl2 as indicated in the figure legends. […] For antibody inhibition cells were pre-incubated with the antibody (10 μg/ml) on ice for 5 minutes. Cells were then allowed to attach for 35 minutes at 37° C., washed twice with PBS, once in ethanol, and fixed in ethanol for 20 minutes at room temperature. For quantitation cells were visualised by staining with 0.1% crystal violet (Sigma) for 10 minutes then lysed in 0.5% Triton X-100 (Sigma) and read optically at 570 nm in a Wallac Victor plate reader.

T2 sequence (P06756 31-889 limits assumed): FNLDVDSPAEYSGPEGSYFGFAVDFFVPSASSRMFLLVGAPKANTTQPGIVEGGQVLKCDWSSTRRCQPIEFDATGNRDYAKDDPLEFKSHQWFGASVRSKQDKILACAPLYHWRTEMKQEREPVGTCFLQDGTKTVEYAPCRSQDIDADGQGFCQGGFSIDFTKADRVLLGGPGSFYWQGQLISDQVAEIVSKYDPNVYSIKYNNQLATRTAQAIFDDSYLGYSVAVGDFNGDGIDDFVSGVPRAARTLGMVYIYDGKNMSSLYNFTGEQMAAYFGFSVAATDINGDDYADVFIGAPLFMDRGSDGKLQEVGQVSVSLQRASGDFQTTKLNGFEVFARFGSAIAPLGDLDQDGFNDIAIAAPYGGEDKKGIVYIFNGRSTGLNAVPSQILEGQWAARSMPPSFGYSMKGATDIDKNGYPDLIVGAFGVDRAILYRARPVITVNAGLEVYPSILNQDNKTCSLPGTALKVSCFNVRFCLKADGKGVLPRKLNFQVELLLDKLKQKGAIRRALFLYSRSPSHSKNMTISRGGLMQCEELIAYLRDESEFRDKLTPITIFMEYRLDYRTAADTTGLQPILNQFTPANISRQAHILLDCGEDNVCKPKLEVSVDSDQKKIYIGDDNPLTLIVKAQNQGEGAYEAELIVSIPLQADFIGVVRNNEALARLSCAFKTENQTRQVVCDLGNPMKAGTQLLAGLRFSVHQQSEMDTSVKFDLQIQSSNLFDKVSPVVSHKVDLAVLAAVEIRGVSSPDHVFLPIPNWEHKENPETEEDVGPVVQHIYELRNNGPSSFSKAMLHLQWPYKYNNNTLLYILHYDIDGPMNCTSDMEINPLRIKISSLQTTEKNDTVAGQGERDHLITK
T2 sequence (P06756 891-1048 partner limits assumed): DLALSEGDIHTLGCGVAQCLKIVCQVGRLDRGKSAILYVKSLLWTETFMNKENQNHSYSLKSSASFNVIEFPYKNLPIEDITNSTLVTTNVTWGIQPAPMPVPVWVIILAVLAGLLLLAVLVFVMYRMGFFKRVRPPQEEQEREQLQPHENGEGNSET
T2 sequence (P05106 27-788): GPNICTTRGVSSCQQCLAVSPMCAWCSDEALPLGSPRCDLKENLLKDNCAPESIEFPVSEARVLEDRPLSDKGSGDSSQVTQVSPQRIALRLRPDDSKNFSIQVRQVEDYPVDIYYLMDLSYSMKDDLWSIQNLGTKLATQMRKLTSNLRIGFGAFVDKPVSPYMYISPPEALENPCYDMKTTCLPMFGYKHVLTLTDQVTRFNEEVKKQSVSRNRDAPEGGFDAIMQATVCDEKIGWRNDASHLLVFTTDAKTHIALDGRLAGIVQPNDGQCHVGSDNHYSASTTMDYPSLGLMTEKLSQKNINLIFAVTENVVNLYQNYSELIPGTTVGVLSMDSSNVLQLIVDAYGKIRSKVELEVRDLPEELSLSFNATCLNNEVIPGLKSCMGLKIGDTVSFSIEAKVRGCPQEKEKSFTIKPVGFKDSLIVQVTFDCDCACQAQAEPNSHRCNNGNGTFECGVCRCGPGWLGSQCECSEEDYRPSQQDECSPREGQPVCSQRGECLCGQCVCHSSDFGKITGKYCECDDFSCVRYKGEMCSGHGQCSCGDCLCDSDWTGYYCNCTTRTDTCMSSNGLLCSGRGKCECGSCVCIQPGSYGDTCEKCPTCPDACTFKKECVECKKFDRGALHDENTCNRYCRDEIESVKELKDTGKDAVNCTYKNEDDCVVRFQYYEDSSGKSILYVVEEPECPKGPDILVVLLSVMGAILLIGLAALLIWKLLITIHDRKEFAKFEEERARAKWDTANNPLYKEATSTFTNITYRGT
T1 sequence (P06756 31-889 limits assumed): as the sequence (P06756 31-889 limits assumed) above
T1 sequence (P06756 891-1048 partner limits assumed): as the sequence (P06756 891-1048 partner limits assumed) above
T1 sequence (P18084 24-799): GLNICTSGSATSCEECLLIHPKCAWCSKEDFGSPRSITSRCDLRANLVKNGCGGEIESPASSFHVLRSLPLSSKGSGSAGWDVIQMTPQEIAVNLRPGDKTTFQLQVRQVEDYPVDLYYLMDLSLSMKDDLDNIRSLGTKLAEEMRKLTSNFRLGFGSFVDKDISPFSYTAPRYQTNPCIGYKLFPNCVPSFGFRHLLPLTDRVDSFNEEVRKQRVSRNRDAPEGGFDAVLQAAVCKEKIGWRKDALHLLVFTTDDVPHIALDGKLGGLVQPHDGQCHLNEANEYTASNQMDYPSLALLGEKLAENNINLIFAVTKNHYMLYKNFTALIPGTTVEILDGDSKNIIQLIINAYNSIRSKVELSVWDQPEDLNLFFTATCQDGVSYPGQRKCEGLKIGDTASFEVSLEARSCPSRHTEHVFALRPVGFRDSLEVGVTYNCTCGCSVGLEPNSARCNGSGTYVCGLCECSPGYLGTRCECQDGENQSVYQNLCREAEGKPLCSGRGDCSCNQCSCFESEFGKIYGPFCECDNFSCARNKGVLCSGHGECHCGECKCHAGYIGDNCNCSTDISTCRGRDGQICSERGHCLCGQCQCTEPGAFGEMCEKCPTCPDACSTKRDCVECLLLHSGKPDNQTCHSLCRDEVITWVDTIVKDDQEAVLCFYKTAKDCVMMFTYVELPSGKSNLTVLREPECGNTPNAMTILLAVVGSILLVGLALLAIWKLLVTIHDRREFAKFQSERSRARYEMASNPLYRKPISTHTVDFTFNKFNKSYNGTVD
T3 sequence (P06756 31-889 limits assumed): as the sequence (P06756 31-889 limits assumed) above
T3 sequence (P06756 891-1048 partner limits assumed): as the sequence (P06756 891-1048 partner limits assumed) above
T3 sequence (P18564 22-788): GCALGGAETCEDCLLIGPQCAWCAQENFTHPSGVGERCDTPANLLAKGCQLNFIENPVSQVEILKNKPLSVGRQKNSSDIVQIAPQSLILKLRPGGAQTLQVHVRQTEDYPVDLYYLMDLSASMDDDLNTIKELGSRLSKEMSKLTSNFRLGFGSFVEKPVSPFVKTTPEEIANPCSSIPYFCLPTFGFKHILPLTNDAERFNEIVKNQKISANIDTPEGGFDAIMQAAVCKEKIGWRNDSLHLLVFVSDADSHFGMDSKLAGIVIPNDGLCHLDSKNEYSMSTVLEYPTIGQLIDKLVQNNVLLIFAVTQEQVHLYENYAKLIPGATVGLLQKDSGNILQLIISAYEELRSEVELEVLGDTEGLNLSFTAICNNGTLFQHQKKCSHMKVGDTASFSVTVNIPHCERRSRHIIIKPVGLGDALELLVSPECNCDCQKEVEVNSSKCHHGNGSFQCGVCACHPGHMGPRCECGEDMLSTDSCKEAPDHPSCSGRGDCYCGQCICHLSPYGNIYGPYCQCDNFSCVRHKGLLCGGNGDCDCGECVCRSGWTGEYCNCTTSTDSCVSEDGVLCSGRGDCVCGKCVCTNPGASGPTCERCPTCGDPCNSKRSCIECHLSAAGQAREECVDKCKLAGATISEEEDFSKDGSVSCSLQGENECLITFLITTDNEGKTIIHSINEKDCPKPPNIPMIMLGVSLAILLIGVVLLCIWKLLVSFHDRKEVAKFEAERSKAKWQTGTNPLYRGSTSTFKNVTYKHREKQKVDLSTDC

“LAP-β1: latency associated peptide-β1 of TGF-β1, amino acids 30 to 278 of SEQ ID NO: 1, obtained from Sigma” was tested, and the “Adhesion of K562-WT cells to the coated protein” value (K562-WT cells) was “bound slightly”, the “Adhesion of K562-αvβ5 cells to the coated protein” value (αvβ5 integrin) was “bound slightly” and the “Adhesion of HL60 cells to the coated protein” value (HL60 cells) was “failed to bind”. For the same substance, the “Adhesion of K562-αvβ3 cells to the coated protein” value (αvβ3 integrin [1]) was “interacted strongly” and the “Adhesion of K562-αvβ6 cells to the coated protein” value (αvβ6 integrin) was “adhered”.
In the case of “GST-LAPβ1 (aa242–252): peptide fragment of LAPβ1 (amino acids 242–252, GRRGDLATIHG) containing the RGD motif, expressed as a GST fusion protein in E. coli ({GST}-GRRGDLATIHG; UniProt P01137 242-252, looked up, fragment)”, the “Ability to support adhesion of K562-αvβ3 cells” value (αvβ3 integrin [2]) is reported as “supported adhesion of K562-αvβ3 cells similarly to intact LAPβ1”.
